Source: patent publication US20240226314A1 (Sanofi, published 2024)
Residue numbers refer to the chain shown, from its start.

T1: His-tagged cynomolgus monkey TfR ectodomain (cyTFRC_89_760; mature protein) (cynomolgus monkey (Macaca fascicularis), UniProt Q5RDH6 89-760 (Pongo abelii entry))
T1 construct: also called cTfR; cTfR ectodomain
T1 chain: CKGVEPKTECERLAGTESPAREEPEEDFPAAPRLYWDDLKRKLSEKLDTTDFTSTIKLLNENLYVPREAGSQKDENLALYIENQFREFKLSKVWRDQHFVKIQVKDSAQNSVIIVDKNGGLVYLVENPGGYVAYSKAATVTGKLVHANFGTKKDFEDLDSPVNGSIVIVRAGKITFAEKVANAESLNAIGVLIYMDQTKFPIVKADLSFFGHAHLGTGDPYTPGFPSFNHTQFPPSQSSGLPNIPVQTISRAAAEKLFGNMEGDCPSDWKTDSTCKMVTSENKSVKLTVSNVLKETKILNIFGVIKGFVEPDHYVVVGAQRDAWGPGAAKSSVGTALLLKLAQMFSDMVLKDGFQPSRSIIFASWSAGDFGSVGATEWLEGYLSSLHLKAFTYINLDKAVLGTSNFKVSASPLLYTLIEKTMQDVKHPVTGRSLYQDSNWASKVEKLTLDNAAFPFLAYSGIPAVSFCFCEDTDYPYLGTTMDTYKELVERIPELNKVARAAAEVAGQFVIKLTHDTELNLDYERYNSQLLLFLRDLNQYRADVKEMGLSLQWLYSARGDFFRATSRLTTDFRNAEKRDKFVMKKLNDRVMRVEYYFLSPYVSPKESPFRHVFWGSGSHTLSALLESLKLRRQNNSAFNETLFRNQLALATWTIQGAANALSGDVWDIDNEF

T2: cTfR expressed on 300.19 cells (SEQ ID NO: 2) (cynomolgus monkey, UniProt Q5RDH6 1-760 (Pongo abelii entry))
T2 construct: Murine pre-B cell line 300.19, stably transfected with a plasmid expressing cTfR; also called cynomolgus TfR; cTfR-expressing 300.19 cells
T2 chain: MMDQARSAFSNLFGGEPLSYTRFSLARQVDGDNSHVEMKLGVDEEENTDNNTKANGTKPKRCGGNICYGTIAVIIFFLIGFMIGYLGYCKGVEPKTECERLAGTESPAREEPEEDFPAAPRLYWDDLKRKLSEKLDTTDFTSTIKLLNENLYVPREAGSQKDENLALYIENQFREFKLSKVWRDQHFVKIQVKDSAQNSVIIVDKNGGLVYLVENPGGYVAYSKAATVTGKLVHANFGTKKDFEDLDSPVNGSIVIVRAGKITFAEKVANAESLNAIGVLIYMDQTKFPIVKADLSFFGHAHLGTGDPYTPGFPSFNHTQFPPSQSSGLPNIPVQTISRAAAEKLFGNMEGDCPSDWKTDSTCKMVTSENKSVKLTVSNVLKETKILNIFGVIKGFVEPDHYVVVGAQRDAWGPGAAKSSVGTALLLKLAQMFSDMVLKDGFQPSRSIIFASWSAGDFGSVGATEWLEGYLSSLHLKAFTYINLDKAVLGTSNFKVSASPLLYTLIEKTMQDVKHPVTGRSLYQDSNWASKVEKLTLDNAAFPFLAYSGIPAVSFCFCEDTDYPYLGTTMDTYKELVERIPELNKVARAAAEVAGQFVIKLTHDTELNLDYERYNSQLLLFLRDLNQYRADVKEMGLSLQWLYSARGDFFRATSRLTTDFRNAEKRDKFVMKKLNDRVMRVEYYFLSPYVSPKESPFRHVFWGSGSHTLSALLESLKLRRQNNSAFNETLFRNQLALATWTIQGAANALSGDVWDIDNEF

B1: 531_1L2_variant3 Fab (Fab, V domains shown)
VH: EVQLLESGGGLVQPGGSLRLSCAASGYTFTRYWLNWVRQAPGKGLEWIGMIDPSVSETHYADSVKGRATLSVDKSKNTAYLQMNSLRAEDTAVYYCSQIRLPYYYAMDSWGQGTTVTVSS
VL: DIQMTQSPSSLSASVGDRVTITCRASQDINSFLNWYQQKPGKAVKLLIYYTSRLQSGVPSRFSGSGSGTDYTLTISSLQPEDFATYFCQQGNTLPRTFGGGTKVEIK
notes: Humanized Fab; The His-tag was removed with TEV protease before SPR
B2: 531_1L2_variant21 Fab (Fab, V domains shown)
VH: QVQLVQSGAEVKKPGASVKVSCKASGYTFTRYYLNWVRQAPGQGLEWIGMIDPSVSETHYAQKFQGRATLTVDKSTSTAYMELSSLRSEDTAVYYCSQIRLPYYYAMDSWGQGTTVTVSS
VL: B1 VL with N30S
notes: as for B1
B3: 531_1L2_variant14 Fab (Fab, V domains shown)
VH: B2 VH with G26D, Y33W, I48M, A68V, L70M, V72R, K74T, A79V
VL: B1 VL
notes: as for B1
B4: 531_1L2_variant8 Fab (Fab, V domains shown)
VH: B1 VH with W33Y
VL: B1 VL with N30S
notes: as for B1
B5: 531_1L2_variant17 Fab (Fab, V domains shown)
VH: B2 VH with G26D, Y33W
VL: B1 VL with N30S
notes: as for B1
B6: 531_1L2_variant6 Fab (Fab, V domains shown)
VH: B1 VH
VL: B1 VL with N30S
notes: as for B1
B7: 531_1L2_variant4 Fab (Fab, V domains shown)
VH: B1 VH with W33Y
VL: B1 VL
notes: as for B1
B8: 531_1L2_variant24 Fab (Fab, V domains shown)
VH: B2 VH
VL: B1 VL with N30S, Y71F
notes: as for B1
B9: 531_1L2_variant16 Fab (Fab, V domains shown)
VH: B2 VH
VL: B1 VL
notes: as for B1
B10: anti-TfR 531v25-Fab-LC-GAA (Fab)
heavy: QVQLVQSGAEVKKPGASVKVSCKASGYTFTRYYLNWVRQAPGQGLEWIGMIDPSVSETHYAQKFQGRATLTVDKSTSTAYMELSSLRSEDTAVYYCSQIRLPYYYAMDSWGQGTTVTVSSASTKGPSVFPLAPSSKSTSGGTAALGCLVKDYFPEPVTVSWNSGALTSGVHTFPAVLQSSGLYSLSSVVTVPSSSLGTQTYICNVNHKPSNTKVDKKVEPKSC
light: not shown
notes: Fab with human GAA fused to the C-terminus of the light chain; also called 531v25Fab-GAA
B11: anti-TfR 531v25mAb-GAA (antibody, human IgG1, kappa)
heavy 1: QVQLVQSGAEVKKPGASVKVSCKASGYTFTRYYLNWVRQAPGQGLEWIGMIDPSVSETHYAQKFQGRATLTVDKSTSTAYMELSSLRSEDTAVYYCSQIRLPYYYAMDSWGQGTTVTVSSASTKGPSVFPLAPSSKSTSGGTAALGCLVKDYFPEPVTVSWNSGALTSGVHTFPAVLQSSGLYSLSSVVTVPSSSLGTQTYICNVNHKPSNTKVDKKVEPKSCDKTHTCPPCPAPELLGGPSVFLFPPKPKDTLMISRTPEVTCVVVDVSHEDPEVKFNWYVDGVEVHNAKTKPREEQYNNASRVVSVLTVLHQDWLNGKEYKCKVSNKALPAPIEKTISKAKGQPREPQVCTLPPSRDELTKNQVSLSCAVKGFYPSDIAVEWESNGQPENNYKTTPPVLDSDGSFFLVSKLTVDKSRWQQGNVFSCSVMHEALHNRFTQKSLSLSPG
heavy 2: not shown
light: not shown

Target: T1, His-tagged cynomolgus monkey TfR …
Assay: SPR; KD on cTfR against KD on hTfR
Description: (§1) Binding of the humanized Fab variants to human, cynomolgus and mouse TfR was assessed using SPR at pH 7.4. Experiments were run on a Bruker MASS-2 instrument with HBS-EP+ as running buffer and sample diluent (Cytiva Life Sciences, #BR100826). HCA sensor chips (Bruker, #1862614) were immobilized with anti-His antibody (His capture kit, Cytiva Life Sciences, #28995056) following manufacturer's instructions. About 10,000 RU of anti-His was obtained. His-tagged hTfR ectodomain (SEQ ID NO: 39), cTfR ectodomain (SEQ ID NO: 40) or mouse TfR ectodomain (SEQ ID NO: 41) (5 μg/ml) was captured for 1 min at 10 μL/min. Concentration series of the humanized Fab variants were then injected for 4 min at 30 μL/min over hTfR surfaces and dissociation was monitored for 5 min. Surface was regenerated with one 1 min pulse of 10 mM glycine-HCl at pH 1.5.

Q: B1 was tested. Which “Cynomolgus/human KD ratio” value did it give?
A: The value was 1.1.

Q: With B2 as the binder, how does the “Cynomolgus/human KD ratio” value read?
A: The value was 8.3.

Q: Which “Cynomolgus/human KD ratio” value does the source give for B3 here?
A: The value was 8.7.

Q: B4 was tested. Which “Cynomolgus/human KD ratio” value did it give?
A: Its value is 7.8.

Q: How did the “Cynomolgus/human KD ratio” value turn out when B5 was run?
A: Its value is 4.9.

Q: With B6 as the binder, how does the “Cynomolgus/human KD ratio” value read?
A: Its value is 3.9.

Q: B7 was tested. Which “Cynomolgus/human KD ratio” value did it give?
A: The value was 10.1.

Q: How did the “Cynomolgus/human KD ratio” value turn out when B8 was run?
A: The value was 8.3.

Q: B9 was tested. Which “Cynomolgus/human KD ratio” value did it give?
A: The value was 6.9.

Target: T2, cTfR expressed on 300.19 cells (SEQ ID …)
Assay: flow cytometry on cTfR-expressing 300.19 cells
Description: (§2) The binding kinetics of the four anti-TfR-GAA molecules to hTfR-expressing 300.19 cells and cTfR-expressing 300.19 cells were determined by flow cytometry. 300.19 is a murine pre-B cell line, originating from a lymphoma, and was stably transfected by nucleoporation with a plasmid expressing either hTfR or cTfR (SEQ ID NO: 1 and SEQ ID NO: 2, respectively).
(§3) 300.19 TFRC-expressing cells were coated at 5×10⁵ cells/well on 96-well High Bind plate (MSD L15XB-3) and 100 μL/well of anti-TfR-GAA molecule were added and incubated for 45 min at 4° C. and washed three times with PBS 1% BSA. […] Antibody binding was evaluated after centrifugation and resuspension of cells by adding 200 μl/well PBS 1% BSA and read using Guava® easyCyte™ 8HT Flow Cytometry System.

Q: With B10 as the binder, how does the EC50 read?
A: The EC50 was 74.6 nM.

Q: B11 was tested. Which EC50 did it give?
A: The EC50 was 2.6 nM.

Target: T3, hTfR expressed on 300.19 cells (SEQ ID NO: 1) (human, UniProt P02786 1-760)
T3 construct: Murine pre-B cell line 300.19, stably transfected with a plasmid expressing hTfR; also called human TfR; hTfR-expressing 300.19 cells
Assay: flow cytometry on hTfR-expressing 300.19 cells
Description: as §2, §3

Q: With B10 as the binder, how does the EC50 read?
A: Its EC50 is 9.9 nM.

Q: With B11 as the binder, how does the EC50 read?
A: The EC50 was 2.7 nM.

Target: His-tagged mouse TfR ectodomain (mTFRC_89_764; mature protein) (mouse, UniProt Q62351 89-763)
Assay: SPR, His-tagged mTfR ectodomain captured on anti-His
Description: as §1

Chain of His-tagged mouse TfR ectodomain (mTFRC_89_764; mature protein) (Q62351 other isoform, or with tags, fused parts or gaps): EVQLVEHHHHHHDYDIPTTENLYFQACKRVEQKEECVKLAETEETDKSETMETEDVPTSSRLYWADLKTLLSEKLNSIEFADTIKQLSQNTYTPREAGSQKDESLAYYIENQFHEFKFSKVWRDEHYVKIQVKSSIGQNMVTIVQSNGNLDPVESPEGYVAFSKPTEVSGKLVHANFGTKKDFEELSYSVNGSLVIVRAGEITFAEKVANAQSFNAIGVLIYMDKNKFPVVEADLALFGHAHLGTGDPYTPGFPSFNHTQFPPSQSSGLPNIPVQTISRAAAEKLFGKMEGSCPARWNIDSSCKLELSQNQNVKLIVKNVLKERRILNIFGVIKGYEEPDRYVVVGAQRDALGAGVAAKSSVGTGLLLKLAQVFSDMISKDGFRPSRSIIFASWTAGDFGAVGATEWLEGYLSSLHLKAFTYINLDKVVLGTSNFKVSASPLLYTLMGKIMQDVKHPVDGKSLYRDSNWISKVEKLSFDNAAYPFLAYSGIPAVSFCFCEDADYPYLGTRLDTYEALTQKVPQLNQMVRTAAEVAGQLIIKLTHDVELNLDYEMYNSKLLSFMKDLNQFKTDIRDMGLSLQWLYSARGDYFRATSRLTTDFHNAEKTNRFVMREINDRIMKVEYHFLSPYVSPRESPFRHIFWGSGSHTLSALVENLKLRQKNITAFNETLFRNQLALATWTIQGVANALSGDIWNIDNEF

Q: Does B1 bind?
A: Result: no binding

Q: Does B2 bind?
A: Result: no binding

Q: Does B3 bind?
A: Result: no binding

Q: Does B4 bind?
A: Result: no binding

Q: Does B5 bind?
A: Result: no binding

Q: Does B6 bind?
A: Result: no binding

Q: Does B7 bind?
A: Result: no binding

Q: Does B8 bind?
A: Result: no binding

Q: Does B9 bind?
A: Result: no binding

Target: T4, His-tagged human TfR ectodomain (hTFRC_89-760_G142S; mature protein) (human, UniProt P02786 89-760)
T4 construct: It carries the G142S haplotype; also called hTfR ectodomain
Assay: SPR, His-tagged TfR ectodomain captured on anti-His, 1:1 fit
Description: as §1

T4 sequence (P02786 89-760 G142S): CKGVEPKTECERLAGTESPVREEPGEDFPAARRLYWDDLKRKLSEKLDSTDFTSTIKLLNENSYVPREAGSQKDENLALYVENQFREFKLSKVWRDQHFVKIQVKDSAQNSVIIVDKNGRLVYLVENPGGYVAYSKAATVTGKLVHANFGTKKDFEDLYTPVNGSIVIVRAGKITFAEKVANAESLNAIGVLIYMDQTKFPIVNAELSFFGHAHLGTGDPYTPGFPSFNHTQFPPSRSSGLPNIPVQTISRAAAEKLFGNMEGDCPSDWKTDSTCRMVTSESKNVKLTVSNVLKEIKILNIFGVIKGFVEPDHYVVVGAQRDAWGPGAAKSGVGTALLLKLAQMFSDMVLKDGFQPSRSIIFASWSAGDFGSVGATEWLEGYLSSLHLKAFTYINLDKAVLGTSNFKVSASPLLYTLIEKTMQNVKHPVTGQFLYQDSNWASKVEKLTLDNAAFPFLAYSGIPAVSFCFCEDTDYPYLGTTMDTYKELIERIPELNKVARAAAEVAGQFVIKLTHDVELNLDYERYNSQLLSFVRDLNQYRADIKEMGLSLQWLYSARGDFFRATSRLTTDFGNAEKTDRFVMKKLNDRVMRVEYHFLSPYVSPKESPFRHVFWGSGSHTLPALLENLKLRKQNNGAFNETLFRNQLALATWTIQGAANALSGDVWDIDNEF

Q: B1 was tested. Which Kd did it give?
A: Its Kd is 183 nM.

Q: With B2 as the binder, how does the Kd read?
A: Its Kd is 3.71 nM.

Q: How did the Kd turn out when B3 was run?
A: The Kd was 8.6 nM.

Q: B4 was tested. Which Kd did it give?
A: The Kd was 61.2 nM.

Q: B5 was tested. Which Kd did it give?
A: The Kd was 5.91 nM.

Q: With B6 as the binder, how does the Kd read?
A: The Kd was 77.4 nM.

Q: How did the Kd turn out when B7 was run?
A: Its Kd is 120 nM.

Q: B8 was tested. Which Kd did it give?
A: Its Kd is 10.2 nM.

Q: B9 was tested. Which Kd did it give?
A: Its Kd is 10.2 nM.

Target: T1, His-tagged cynomolgus monkey TfR …
Assay: as above
Description: as §1

Q: For B1, which Kd is on record?
A: The Kd was 204 nM.

Q: With B2 as the binder, how does the Kd read?
A: Its Kd is 30.9 nM.

Q: Which Kd does the source give for B3 here?
A: Its Kd is 75.1 nM.

Q: For B4, which Kd is on record?
A: Its Kd is 475 nM.

Q: B5 was tested. Which Kd did it give?
A: The Kd was 28.9 nM.

Q: With B6 as the binder, how does the Kd read?
A: Its Kd is 300 nM.

Q: B7 was tested. Which Kd did it give?
A: The Kd was 1210 nM.

Q: With B8 as the binder, how does the Kd read?
A: The Kd was 84.6 nM.

Q: Which Kd does the source give for B9 here?
A: Its Kd is 70.4 nM.

Target: T2, cTfR expressed on 300.19 cells (SEQ ID …)
Assay: flow cytometry; EC50 on cTfR cells against EC50 on hTfR cells
Description: as §2, §3

Q: With B10 as the binder, how does the “Cynomolgus/human ratio (TfR)” value read?
A: Its value is 7.5.

Q: How did the “Cynomolgus/human ratio (TfR)” value turn out when B11 was run?
A: The value was 1.
